The text below walks through data of the supplement of paper PMC7125110.

± gives the standard error. For some of these results: This sample holds only a part of the variants without activity.

B1: glmS ribozyme (parent)
chain: AUAAAAGCGCCAGAACUACAGAAAUGUAGUUGACGAGGAGGAGGUUUAUCGAAUUUUCGGCGGAUGCCUCCAAA

What all share (conditions): with glucosamine-6-phosphate
In series [1] the parent is B1. The experiment in a line: kcat; higher = faster cleavage; RNA array. The essentials: (§1)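 The measurements used barcoded ribozyme variants on sequenced MiSeq chips, transcribed in situ by E. coli RNA polymerase and tracked at 37 °C with a hybridised Cy3 probe. Glucosamine-6-phosphate, 40 μM to 10 mM in HEPES/KCl/Mg(OAc)2 buffer, was flowed in while tiles were imaged over ~14 h. Baseline-normalised signals, also normalised to non-cleaving reference variants, gave per-tile medians that were fit to one- or two-exponential decays for kobs. kcat and KM resulted from weighted Michaelis–Menten fits across concentrations.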

Variants of B1 are the subject of series [2]. The series can be described thus: KM; higher = weaker cofactor use; RNA array. The procedure, abridged: as §1
The variants in series [3] derive from B1. The series can be described thus: self-cleavage kobs at 40 uM GlcN6P; higher = faster cleavage; RNA array. The essentials:
as §1

In series [4] the parent is B1. The experiment in a line: self-cleavage kobs at 160 uM GlcN6P; higher = faster cleavage; RNA array. The procedure, abridged: as §1
In series [5] the parent is B1. The series can be described thus: self-cleavage kobs at 640 uM GlcN6P; higher = faster cleavage; RNA array. The procedure, abridged: as §1
In series [6] the parent is B1. The experiment in a line: self-cleavage kobs at 2500 uM GlcN6P; higher = faster cleavage; RNA array. The procedure, abridged:
as §1

Series [7] covers variants of B1. The series can be described thus: self-cleavage kobs at 10000 uM GlcN6P; higher = faster cleavage; RNA array. The essentials:
as §1

Take U49G A53G A64G C67A: in the series with glucosamine-6-phosphate [1], the kcat amounted to 0.000753 ± 0.0002 s⁻¹. Moreover, in the series with glucosamine-6-phosphate [2], the KM came out at 2220 ± 890 µM. The “self-cleavage kobs at 40 uM GlcN6P” value in the series with glucosamine-6-phosphate [3] is 3.28e-05 ± 1.1e-05 s⁻¹. Besides, the “self-cleavage kobs at 160 uM GlcN6P” value with glucosamine-6-phosphate [4] is 5.27e-05 ± 1.4e-05 s⁻¹. Also, in the series with glucosamine-6-phosphate [5], the “self-cleavage kobs at 640 uM GlcN6P” value came out at 0.00016 ± 2.3e-05 s⁻¹. The “self-cleavage kobs at 2500 uM GlcN6P” value in the series with glucosamine-6-phosphate [6] turned out to be 0.000369 ± 7.9e-05 s⁻¹. Also, the “self-cleavage kobs at 10000 uM GlcN6P” value in the series with glucosamine-6-phosphate [7] stood at 0.000669 ± 0.00013 s⁻¹.
On to A15U G51C, for which the kcat with glucosamine-6-phosphate [1] was < 1e-05 s⁻¹. For the same variant, the “self-cleavage kobs at 40 uM GlcN6P” value with glucosamine-6-phosphate [3] is < 1e-05 s⁻¹. Further, the “self-cleavage kobs at 640 uM GlcN6P” value in the series with glucosamine-6-phosphate [5] is < 1e-05 s⁻¹.
As to A15G C61A, the kcat with glucosamine-6-phosphate [1] was < 1e-05 s⁻¹.
As for C10A A12G, the kcat with glucosamine-6-phosphate [1] is < 1e-05 s⁻¹. Besides, in the series with glucosamine-6-phosphate [3], the “self-cleavage kobs at 40 uM GlcN6P” value was < 1e-05 s⁻¹. The “self-cleavage kobs at 10000 uM GlcN6P” value in the series with glucosamine-6-phosphate [7] is < 1e-05 s⁻¹.
Regarding C10U G66U, the catalytic constant (kcat) with glucosamine-6-phosphate [1] is < 1e-05 s⁻¹. For the same variant, in the series with glucosamine-6-phosphate [4], the “self-cleavage kobs at 160 uM GlcN6P” value is < 1e-05 s⁻¹. Further, in the series with glucosamine-6-phosphate [5], the “self-cleavage kobs at 640 uM GlcN6P” value was < 1e-05 s⁻¹. Further, in the series with glucosamine-6-phosphate [7], the “self-cleavage kobs at 10000 uM GlcN6P” value was < 1e-05 s⁻¹.
For G44C U55G, the kcat with glucosamine-6-phosphate [1] is 5.43e-05 ± 1.8e-05 s⁻¹. Also, the “self-cleavage kobs at 2500 uM GlcN6P” value in the series with glucosamine-6-phosphate [6] was 5.66e-05 ± 2.2e-05 s⁻¹. Further, the “self-cleavage kobs at 10000 uM GlcN6P” value in the series with glucosamine-6-phosphate [7] is 4.43e-05 ± 2.1e-05 s⁻¹.
As to G63A C68G, the kcat with glucosamine-6-phosphate [1] turned out to be 1.26e-05 ± 3.4e-06 s⁻¹.
Take U47G U56C A64G: the turnover number (kcat) with glucosamine-6-phosphate [1] came out at 0.000113 ± 1.2e-05 s⁻¹. Also, in the series with glucosamine-6-phosphate [2], the KM was 1500 ± 480 µM. Besides, the “self-cleavage kobs at 640 uM GlcN6P” value with glucosamine-6-phosphate [5] is 2.82e-05 ± 1.4e-05 s⁻¹. For the same variant, in the series with glucosamine-6-phosphate [6], the “self-cleavage kobs at 2500 uM GlcN6P” value amounted to 7.42e-05 ± 1.5e-05 s⁻¹. Besides, the “self-cleavage kobs at 10000 uM GlcN6P” value in the series with glucosamine-6-phosphate [7] was 9.62e-05 ± 1.7e-05 s⁻¹.
Take G59U C67A: the catalytic constant (kcat) with glucosamine-6-phosphate [1] turned out to be 1.11e-05 ± 3.2e-06 s⁻¹. The “self-cleavage kobs at 40 uM GlcN6P” value with glucosamine-6-phosphate [3] was < 1e-05 s⁻¹.
On to C50U U55A, for which the kcat with glucosamine-6-phosphate [1] was found to be 8.88e-05 ± 8.3e-06 s⁻¹. Moreover, the KM with glucosamine-6-phosphate [2] worked out at 2350 ± 570 µM. Also, the “self-cleavage kobs at 640 uM GlcN6P” value with glucosamine-6-phosphate [5] is 2.43e-05 ± 9.1e-06 s⁻¹. Further, the “self-cleavage kobs at 2500 uM GlcN6P” value with glucosamine-6-phosphate [6] amounted to 4.32e-05 ± 6.8e-06 s⁻¹. The “self-cleavage kobs at 10000 uM GlcN6P” value with glucosamine-6-phosphate [7] stood at 7.37e-05 ± 9.9e-06 s⁻¹.
With G32U C71U, the kcat with glucosamine-6-phosphate [1] is 0.00136 ± 0.0003 s⁻¹. Moreover, the KM in the series with glucosamine-6-phosphate [2] was 5540 ± 1700 µM. In addition, the “self-cleavage kobs at 160 uM GlcN6P” value with glucosamine-6-phosphate [4] was determined as 6.14e-05 ± 1.3e-05 s⁻¹. The “self-cleavage kobs at 640 uM GlcN6P” value with glucosamine-6-phosphate [5] stood at 0.000146 ± 1.1e-05 s⁻¹. For the same variant, the “self-cleavage kobs at 2500 uM GlcN6P” value with glucosamine-6-phosphate [6] amounted to 0.00037 ± 3.3e-05 s⁻¹. Moreover, the “self-cleavage kobs at 10000 uM GlcN6P” value with glucosamine-6-phosphate [7] amounted to 0.000927 ± 7.7e-05 s⁻¹.
A12U U31C: the kcat in the series with glucosamine-6-phosphate [1] came out at 0.011 ± 0.0038 s⁻¹. The Michaelis-Menten constant (KM) with glucosamine-6-phosphate [2] amounted to 2070 ± 880 µM. Also, in the series with glucosamine-6-phosphate [3], the “self-cleavage kobs at 40 uM GlcN6P” value was determined as 0.000254 ± 4.3e-05 s⁻¹. Also, in the series with glucosamine-6-phosphate [4], the “self-cleavage kobs at 160 uM GlcN6P” value was found to be 0.000727 ± 0.00017 s⁻¹. Further, in the series with glucosamine-6-phosphate [5], the “self-cleavage kobs at 640 uM GlcN6P” value is 0.00178 ± 0.00062 s⁻¹. For the same variant, the “self-cleavage kobs at 10000 uM GlcN6P” value with glucosamine-6-phosphate [7] came out at 0.0101 ± 0.0026 s⁻¹.
Consider A12U C70U, for which, in the series with glucosamine-6-phosphate [1], the kcat came to 0.00743 ± 0.0034 s⁻¹. For the same variant, the “self-cleavage kobs at 40 uM GlcN6P” value in the series with glucosamine-6-phosphate [3] came out at 0.00232 ± 0.00023 s⁻¹. For the same variant, the “self-cleavage kobs at 160 uM GlcN6P” value in the series with glucosamine-6-phosphate [4] came out at 0.0134 ± 0.0027 s⁻¹. Further, in the series with glucosamine-6-phosphate [5], the “self-cleavage kobs at 640 uM GlcN6P” value turned out to be 0.0108 ± 0.0021 s⁻¹. Moreover, the “self-cleavage kobs at 2500 uM GlcN6P” value with glucosamine-6-phosphate [6] was found to be 0.0055 ± 0.0012 s⁻¹.
As to A52G C58A, in the series with glucosamine-6-phosphate [1], the catalytic constant (kcat) was determined as 4.08e-05 ± 7.3e-06 s⁻¹. Further, the “self-cleavage kobs at 2500 uM GlcN6P” value with glucosamine-6-phosphate [6] was determined as 4.01e-05 ± 9.9e-06 s⁻¹. For the same variant, the “self-cleavage kobs at 10000 uM GlcN6P” value with glucosamine-6-phosphate [7] is 3.55e-05 ± 9.9e-06 s⁻¹.
As for A12C G40U, the kcat with glucosamine-6-phosphate [1] amounted to 0.00214 ± 0.00032 s⁻¹. In the series with glucosamine-6-phosphate [2], the KM was 2490 ± 550 µM. In addition, the “self-cleavage kobs at 40 uM GlcN6P” value with glucosamine-6-phosphate [3] was 4.4e-05 ± 6.1e-06 s⁻¹. In addition, in the series with glucosamine-6-phosphate [4], the “self-cleavage kobs at 160 uM GlcN6P” value is 0.000109 ± 1.2e-05 s⁻¹. For the same variant, the “self-cleavage kobs at 640 uM GlcN6P” value with glucosamine-6-phosphate [5] stood at 0.000471 ± 5e-05 s⁻¹. Further, the “self-cleavage kobs at 2500 uM GlcN6P” value with glucosamine-6-phosphate [6] came out at 0.0012 ± 0.00012 s⁻¹. The “self-cleavage kobs at 10000 uM GlcN6P” value in the series with glucosamine-6-phosphate [7] stood at 0.00165 ± 0.00013 s⁻¹.
Regarding U31C U57A, the kcat with glucosamine-6-phosphate [1] is 2.49e-05 ± 2.1e-06 s⁻¹. For the same variant, the “self-cleavage kobs at 2500 uM GlcN6P” value with glucosamine-6-phosphate [6] is 2.32e-05 ± 9.8e-06 s⁻¹.
On to A64U C67G, for which the catalytic constant (kcat) in the series with glucosamine-6-phosphate [1] was < 1e-05 s⁻¹. Further, the “self-cleavage kobs at 40 uM GlcN6P” value with glucosamine-6-phosphate [3] was < 1e-05 s⁻¹. The “self-cleavage kobs at 640 uM GlcN6P” value with glucosamine-6-phosphate [5] is < 1e-05 s⁻¹.
Turning to G41C U46A, the catalytic constant (kcat) with glucosamine-6-phosphate [1] was 0.00012 ± 1.2e-05 s⁻¹. In addition, in the series with glucosamine-6-phosphate [2], the KM is 3110 ± 830 µM. For the same variant, the “self-cleavage kobs at 2500 uM GlcN6P” value in the series with glucosamine-6-phosphate [6] came out at 5.8e-05 ± 1.3e-05 s⁻¹. For the same variant, the “self-cleavage kobs at 10000 uM GlcN6P” value with glucosamine-6-phosphate [7] was 9.03e-05 ± 1.3e-05 s⁻¹.
